Columns and labels:
[1] = target: the molecule itself; assay: crystal structure; SeMet-EhRNaseIII194, hanging drop, 16 °C, 1.26 M (NH4)2SO4, 0.1 M Hepes pH 7.8; P212121, SAD phasing, 2.10 Å
[2] = target: the molecule itself; assay: crystal structure; EhRNaseIII229, sitting drop, 16 °C, 1.6 M (NH4)2SO4, 0.02 M MgCl2, 0.05 M Tris-HCl pH 7.5; apo (1.90 Å) and soaked with 10 mM MnCl2 (2.05 Å); P212121, molecular replacement
EhRNaseIII229 [3] = target: T1, EhRNaseIII229 (Entamoeba histolytica, UniProt C4LU64 2-229); assay: EMSA; 5 mM Mg2+; almost complete shift at 3e-4 M; EMSA (1x): 30 mM Tris-HCl pH 7.5, 30 mM NaCl, 5 mM MgCl2, 1 mM DTT, 0.1 mM EDTA, 5% glycerol; room temperature 10 min then ice 20 min; 6% native PAGE, 0.5x TBE; conditions: protein: recombinant; tags: His-Sumo removed by Ulp1; chain copies: 2; blunt, 100 bp
T1 sequence: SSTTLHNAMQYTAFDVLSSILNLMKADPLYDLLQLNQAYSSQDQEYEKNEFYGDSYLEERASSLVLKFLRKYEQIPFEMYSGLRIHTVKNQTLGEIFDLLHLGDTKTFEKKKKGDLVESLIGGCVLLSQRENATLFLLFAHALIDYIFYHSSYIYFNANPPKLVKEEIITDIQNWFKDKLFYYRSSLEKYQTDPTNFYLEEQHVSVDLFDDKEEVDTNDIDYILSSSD

EhRNaseIII194 [4] = target: T2, EhRNaseIII194 (Entamoeba histolytica, UniProt C4LU64 2-194); assay: EMSA; 5 mM Mg2+; shift at 5e-5 M; EMSA (1x): 30 mM Tris-HCl pH 7.5, 30 mM NaCl, 5 mM MgCl2, 1 mM DTT, 0.1 mM EDTA, 5% glycerol; room temperature 10 min then ice 20 min; 6% native PAGE, 0.5x TBE; conditions: protein: recombinant; tags: His-Sumo removed by Ulp1; chain copies: 2; blunt, 100 bp
T2 sequence: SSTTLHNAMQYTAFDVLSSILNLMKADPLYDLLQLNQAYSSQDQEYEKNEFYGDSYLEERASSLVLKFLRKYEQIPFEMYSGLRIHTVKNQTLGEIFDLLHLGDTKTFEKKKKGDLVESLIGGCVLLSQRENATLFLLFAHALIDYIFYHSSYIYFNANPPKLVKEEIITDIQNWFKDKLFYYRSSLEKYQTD

[5] = target: T3, EhRNaseIII256 (full-length EhRNaseIII) (Entamoeba histolytica, UniProt C4LU64 2-256); assay: EMSA; 5 mM Mg2+; EMSA (1x): 30 mM Tris-HCl pH 7.5, 30 mM NaCl, 5 mM MgCl2, 1 mM DTT, 0.1 mM EDTA, 5% glycerol; room temperature 10 min then ice 20 min; 6% native PAGE, 0.5x TBE; conditions: protein: recombinant, tags: His-Sumo removed by Ulp1, chain copies: 2, blunt
T3 sequence: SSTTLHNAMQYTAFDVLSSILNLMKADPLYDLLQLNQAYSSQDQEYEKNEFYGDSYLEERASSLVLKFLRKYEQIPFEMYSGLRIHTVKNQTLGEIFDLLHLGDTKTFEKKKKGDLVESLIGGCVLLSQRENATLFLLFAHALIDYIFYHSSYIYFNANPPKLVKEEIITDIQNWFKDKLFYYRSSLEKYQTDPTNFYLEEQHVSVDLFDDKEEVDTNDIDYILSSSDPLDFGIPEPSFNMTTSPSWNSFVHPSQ

EhRNaseIII194 [6] = target: T2, EhRNaseIII194; assay: EMSA; 5 mM Mg2+; up to 1e-3 M; EMSA (1x): 30 mM Tris-HCl pH 7.5, 30 mM NaCl, 5 mM MgCl2, 1 mM DTT, 0.1 mM EDTA, 5% glycerol; room temperature 10 min then ice 20 min; 6% native PAGE, 0.5x TBE; conditions: protein: recombinant; tags: His-Sumo removed by Ulp1; chain copies: 2; blunt, 25 bp
EhRNaseIII229 [7] = target: T1, EhRNaseIII229; assay: EMSA; 5 mM Mg2+; EMSA (1x): 30 mM Tris-HCl pH 7.5, 30 mM NaCl, 5 mM MgCl2, 1 mM DTT, 0.1 mM EDTA, 5% glycerol; room temperature 10 min then ice 20 min; 6% native PAGE, 0.5x TBE; conditions: protein: recombinant; tags: His-Sumo removed by Ulp1; chain copies: 2; blunt, 25 bp
[8] = target: T3, EhRNaseIII256 (full-length EhRNaseIII); assay: EMSA; 5 mM Mg2+; up to 1e-3 M; EMSA (1x): 30 mM Tris-HCl pH 7.5, 30 mM NaCl, 5 mM MgCl2, 1 mM DTT, 0.1 mM EDTA, 5% glycerol; room temperature 10 min then ice 20 min; 6% native PAGE, 0.5x TBE; conditions: protein: recombinant, tags: His-Sumo removed by Ulp1, chain copies: 2, blunt
EhRNaseIII229 [9] = target: T1, EhRNaseIII229; assay: as above; conditions: protein: recombinant, tags: His-Sumo removed by Ulp1, chain copies: 2, blunt
EhRNaseIII194 [10] = target: T2, EhRNaseIII194; assay: EMSA; 5 mM Mg2+; binds at 1e-4 M; EMSA (1x): 30 mM Tris-HCl pH 7.5, 30 mM NaCl, 5 mM MgCl2, 1 mM DTT, 0.1 mM EDTA, 5% glycerol; room temperature 10 min then ice 20 min; 6% native PAGE, 0.5x TBE; conditions: protein: recombinant; tags: His-Sumo removed by Ulp1; chain copies: 2; blunt, 70 bp

B1: SeMet-EhRNaseIII194 (selenomethionine-labeled EhRNaseIII, aa 1-194) (domain or fragment, Entamoeba histolytica, UniProt C4LU64 1-194, looked up)
chain: MSSTTLHNAMQYTAFDVLSSILNLMKADPLYDLLQLNQAYSSQDQEYEKNEFYGDSYLEERASSLVLKFLRKYEQIPFEMYSGLRIHTVKNQTLGEIFDLLHLGDTKTFEKKKKGDLVESLIGGCVLLSQRENATLFLLFAHALIDYIFYHSSYIYFNANPPKLVKEEIITDIQNWFKDKLFYYRSSLEKYQTD
modifications: selenomethionine substituted (Se-Met) for methionine
notes: EhRNaseIII, the only RNaseIII protein of Entamoeba histolytica (256 aa), aa 1-194 (CTR truncated); Cloned from E. histolytica cDNA into pET28-Sumo; also called EhRNase194; SeMet-RNaseIII194; source: E. coli BL21(DE3) in M9 medium with Se-Met, purified (HisTrap, Ulp1 digestion, HisTrap, HiTrap Q, Superdex 75); not shown: His-Sumo, N-terminal, cleaved
- stoichiometry N [1]: 2

B2: EhRNaseIII229 (EhRNaseIII aa 1-229) (domain or fragment, Entamoeba histolytica, UniProt C4LU64 1-229, looked up)
chain: MSSTTLHNAMQYTAFDVLSSILNLMKADPLYDLLQLNQAYSSQDQEYEKNEFYGDSYLEERASSLVLKFLRKYEQIPFEMYSGLRIHTVKNQTLGEIFDLLHLGDTKTFEKKKKGDLVESLIGGCVLLSQRENATLFLLFAHALIDYIFYHSSYIYFNANPPKLVKEEIITDIQNWFKDKLFYYRSSLEKYQTDPTNFYLEEQHVSVDLFDDKEEVDTNDIDYILSSSD
notes: EhRNaseIII, the only RNaseIII protein of Entamoeba histolytica (256 aa), aa 1-229 (CTR truncated); Cloned from E. histolytica cDNA into pET28-Sumo; Residues after about 195 were disordered in the crystal; also called EhRNase229; source: E. coli BL21(DE3), purified (HisTrap, Ulp1 digestion, HisTrap, HiTrap Q, Superdex 75); not shown: His-Sumo, N-terminal, cleaved
- stoichiometry N [2]: 2

B3: RNA100 (dsRNA)
RNA 1: GGGAGAAACGCGGCCUCUUCUUAUUUAUGGCGACAUGUUGUGCCACAUAUUGAGCCAGUAGCGCGGUGUAUUAUACCAGACCUUAUUGGUAUGGUCUCCC
RNA 2: GGGAGACCAUACCAAUAAGGUCUGGUAUAAUACACCGCGCUACUGGCUCAAUAUGUGGCACAACAUGUCGCCAUAAAUAAGAAGAGGCCGCGUUUCUCCC
- binding signal (EhRNaseIII229 [3]): > 2 fold affinity vs EhRNaseIII256 (at least)
- binding signal (EhRNaseIII194 [4]): ~6 fold affinity vs EhRNaseIII256 (2-fold vs EhRNaseIII229)
- Kd ([5]; 100 bp): ~600 µM

B4: RNA25 (dsRNA)
RNA 1: GGGAGAAACGCGGCCUCUUUCUCCC
RNA 2: GGGAGAAAGAGGCCGCGUUUCUCCC
- binding result (EhRNaseIII194 [6]): no binding
- binding result ([5]; 25 bp): no binding
- binding result (EhRNaseIII229 [7]): no binding

B5: RNA50 (dsRNA)
RNA 1: GGGAGAAACGCGGCCUCUUCUUAUUUAUGGCGACAUGUUGUGCCUCUCCC
RNA 2: GGGAGAGGCACAACAUGUCGCCAUAAAUAAGAAGAGGCCGCGUUUCUCCC
- binding result ([8]; 50 bp): no binding
- binding result (EhRNaseIII229 [9]; 50 bp): no binding

B6: RNA70 (dsRNA)
RNA 1: GGGAGAAACGCGGCCUCUUCUUAUUUAUGGCGACAUGUUGUGCCACAUAUUGAGCCAGUAGCGCUCUCCC
RNA 2: GGGAGAGCGCUACUGGCUCAAUAUGUGGCACAACAUGUCGCCAUAAAUAAGAAGAGGCCGCGUUUCUCCC
- binding result ([8]; 70 bp): no binding
- binding result (EhRNaseIII229 [9]; 70 bp): no binding
- binding result (EhRNaseIII194 [10]): binds

Reference: paper PMC5357909, “Structural and functional studies of a noncanonical Dicer from Entamoeba histolytica” (Scientific Reports, 2017)
